Test results published in article PMC9478129.

Key:
[1] = system: Aa-Cascade Avi-Cas6f, mSav-ATTO647N labelled (Aggregatibacter actinomycetemcomitans); assay: single-molecule DNA curtains; conditions: EMSA: 1x TAE, 200 mM NaCl, 10% glycerol, 0.1 mg/mL BSA, 20 nM DNA, 37 C (22 C for AcrIF9 mutants), 1% agarose, footprint: same buffer, 2 mM KMnO4, AFM: …
[2] = system: Aa-Cascade Avi-Cas6f, mSav-ATTO647N labelled;Aa1-AcrIF9 (Aggregatibacter actinomycetemcomitans;Aggregatibacter actinomycetemcomitans?); assay: single-molecule DNA curtains; conditions: with AcrIF9, mean off-target dwell time 18.6 s, EMSA: 1x TAE, 200 mM NaCl, 10% glycerol, 0.1 mg/mL BSA, 20 nM DNA, 37 C (22 C for AcrIF9 mutants), 1% agarose, footprint: same buffer, 2 mM KMnO4, AFM: …

bacteriophage lambda DNA with target
binding signal (% on-target events) [1]: 18 | binding signal (% on-target events) [2]: 8
